Here are results for one substance from publication PMC3928541.

Like-named read-outs stand apart in the source and are kept apart here.

Experiment [1] has as its target mCherry-RAB11A (UniProt P62491). The experiment is described as follows: FRET or BRET.
For experiment [2] the target is unchanged. The experiment is described as follows: FRET or BRET. This is another data set of the same source. Background: BRET reads energy transfer from a luciferase to a nearby fluorophore.

UniProt P62491, sequence (P62491 whole entry): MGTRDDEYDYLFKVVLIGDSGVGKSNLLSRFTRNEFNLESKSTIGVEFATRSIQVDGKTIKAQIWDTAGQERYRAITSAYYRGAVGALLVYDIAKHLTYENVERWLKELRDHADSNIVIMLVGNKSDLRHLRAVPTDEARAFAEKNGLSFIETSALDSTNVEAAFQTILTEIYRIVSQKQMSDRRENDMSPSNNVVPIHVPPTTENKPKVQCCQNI

For “KIF13A-YFP fusion protein (natural protein)”, the mean YFP fluorescence lifetime (FLIM) with mCherry-RAB11A [1] was found to be 2.19 ns; with mCherry-RAB11A [2], 2.45 ns.
